Experimental data published in patent US20170260258A1 (GENEONE LIFE SCIENCE, published 2017).

Tests used:
[1] = biological target: T1, L1CAM on L1CAM-overexpressing human cholangiocarcinoma cells (SCK-L1) (UniProt P32004 20-1257); assay: flow cytometry
T1 construct: whole, on cells; also called L1 cell adhesion molecule

[2] = biological target: T2, GST-pre-S1 (1st to 56th amino acids) protein (hepatitis B virus, UniProt P08515 1-218 = GST); assay: BLI (Octet Red)
[3] = biological target: T2, GST-pre-S1 (1st to 56th amino acids) …; assay: BLI (Octet Red), antibody captured on anti-human Fc tip, GST-pre-S1 in solution
Procedure: Thereafter, the biosensor tip was saturated with 2 μg/mL of the antibody for 10 minutes. […] The binding and separation rates were measured for 15 minutes and 30 minutes, respectively. In all the measurements, a baseline drift was corrected by subtracting a control sensor exposed to only a running buffer. The operating temperature was maintained at 30° C. The data was analyzed using a 1:1 interaction model (fitting global, Rmax unlinked by sensor) equipped with ForteBio data analysis software 7.0.

[4] = biological target: T2, GST-pre-S1 (1st to 56th amino acids) …; assay: affinity determination (competitive ELISA / Octet Red; FIGS. 2 to 5 cited)

T2 sequence (P08515 whole entry): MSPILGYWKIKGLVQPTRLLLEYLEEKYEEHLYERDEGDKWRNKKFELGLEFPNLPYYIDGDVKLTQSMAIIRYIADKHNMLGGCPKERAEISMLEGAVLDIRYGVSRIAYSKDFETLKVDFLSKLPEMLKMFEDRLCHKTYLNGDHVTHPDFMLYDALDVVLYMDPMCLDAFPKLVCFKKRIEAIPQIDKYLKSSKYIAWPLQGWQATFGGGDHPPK
T1 sequence (P32004 20-1257 limits assumed): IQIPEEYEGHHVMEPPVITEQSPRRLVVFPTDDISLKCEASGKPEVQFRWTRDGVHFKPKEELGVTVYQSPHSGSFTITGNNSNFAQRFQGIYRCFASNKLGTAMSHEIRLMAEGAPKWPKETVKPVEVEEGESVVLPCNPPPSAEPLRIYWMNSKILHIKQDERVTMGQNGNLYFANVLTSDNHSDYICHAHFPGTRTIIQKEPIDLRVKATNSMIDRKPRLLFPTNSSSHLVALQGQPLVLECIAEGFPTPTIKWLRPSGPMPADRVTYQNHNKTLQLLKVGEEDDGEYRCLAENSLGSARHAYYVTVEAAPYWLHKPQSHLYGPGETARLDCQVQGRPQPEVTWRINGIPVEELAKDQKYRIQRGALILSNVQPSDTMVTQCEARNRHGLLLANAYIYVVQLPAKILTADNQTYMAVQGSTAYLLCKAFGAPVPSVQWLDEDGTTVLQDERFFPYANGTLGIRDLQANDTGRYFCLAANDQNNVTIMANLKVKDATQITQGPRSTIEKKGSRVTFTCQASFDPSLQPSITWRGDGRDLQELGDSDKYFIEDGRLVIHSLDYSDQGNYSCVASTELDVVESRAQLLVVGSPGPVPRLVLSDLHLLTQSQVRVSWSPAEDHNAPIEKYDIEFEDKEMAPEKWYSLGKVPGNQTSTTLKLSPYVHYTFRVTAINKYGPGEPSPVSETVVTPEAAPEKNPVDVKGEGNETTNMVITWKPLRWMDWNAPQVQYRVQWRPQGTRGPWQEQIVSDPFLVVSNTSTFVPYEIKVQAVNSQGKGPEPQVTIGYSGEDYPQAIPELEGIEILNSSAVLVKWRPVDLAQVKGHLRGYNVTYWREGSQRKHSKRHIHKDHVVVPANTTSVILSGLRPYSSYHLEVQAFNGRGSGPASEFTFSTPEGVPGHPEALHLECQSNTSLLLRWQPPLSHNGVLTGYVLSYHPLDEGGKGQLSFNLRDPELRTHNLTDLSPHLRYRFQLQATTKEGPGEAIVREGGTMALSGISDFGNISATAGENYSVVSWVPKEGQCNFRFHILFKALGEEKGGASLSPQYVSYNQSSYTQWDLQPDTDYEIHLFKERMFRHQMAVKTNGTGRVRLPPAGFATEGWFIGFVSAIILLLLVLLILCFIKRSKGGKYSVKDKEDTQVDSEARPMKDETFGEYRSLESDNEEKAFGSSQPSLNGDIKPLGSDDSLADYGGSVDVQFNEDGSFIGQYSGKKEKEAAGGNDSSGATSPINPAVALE

B1: humanized antibody HzKR127-3.2 (antibody, V domains shown)
VH: QVQLQQSGAEVKKPGASVKVSCKASGYTFTSSWMNWVRQAPGQGLEWMGRIYPGDGDTSYAQKFQGRVTMTADKSTSTVYMELSSLRSEDTAVYYCAREYAEAYWGQGTLVTVSS
VL: DIVMTQTPLSLSVTPGQPASISCKSSQSLLYSNGKTYLNWLLQKPGQPPQRLIYLVSNRDSGVPDRFSGSGSGTDFTLKISRVEAEDVGVYYCVQGTHFPQTFGGGTKVEIKR
[1]
  binding result: no binding (tested: 1 µg of the antibody in 100 µL)
[2]
  fold higher affinity than HzKR127-3.1: 1.6 fold
[3]
  Kd: 0.493 nM
  koff: 5.32e-05 s⁻¹
  kon: 108000 M⁻¹ s⁻¹
[4]
  fold higher affinity than KR127: 2.5 fold
